# Experiments:
# [1] = biological target: T1, extracellular domain of FGFR2c protein (Example 1) (UniProt P21802 22-377); test: phage ELISA
# T1 construct: extracellular domain
# [2] = biological target: T1, extracellular domain of FGFR2c protein …; test: phage ELISA; remark: listed apart in the source
# [3] = biological target: T2, recombinant cynomolgus monkey FGFR2b (cynomolgus monkey); test: ELISA, antibody 1ug/mL
# T2 construct: extracellular domain; bought; also called cynomolgus macaque FGFR2b
# [4] = biological target: T3, human FGFR2b (Kaixia Biotechnology, catalog number FGR-HM1BB) (human, UniProt P21802-3 22-378); test: ELISA, FGFR2b coated at 1 µg/ml
# T3 construct: extracellular domain; bought; also called hFGFR2b; human FGFR2b protein
# [5] = biological target: T4, FGFR2c (acro) (UniProt P21802 22-377); test: ELISA
# [6] = biological target: T5, FGFR2b on KATO III cells (human, UniProt P21802-3 22-822); test: flow cytometry, KATO III cells
# T5 construct: whole, on cells; also called KATO III cells that overexpress FGFR2b
# [7] = biological target: T3, human FGFR2b (Kaixia Biotechnology, …); test: BLI, antibody on AHC2 sensor
# [8] = biological target: T4, FGFR2c (acro); test: ELISA, antibody 10 µg/mL
# T3 sequence (P21802 other isoform, or with tags, fused parts or gaps): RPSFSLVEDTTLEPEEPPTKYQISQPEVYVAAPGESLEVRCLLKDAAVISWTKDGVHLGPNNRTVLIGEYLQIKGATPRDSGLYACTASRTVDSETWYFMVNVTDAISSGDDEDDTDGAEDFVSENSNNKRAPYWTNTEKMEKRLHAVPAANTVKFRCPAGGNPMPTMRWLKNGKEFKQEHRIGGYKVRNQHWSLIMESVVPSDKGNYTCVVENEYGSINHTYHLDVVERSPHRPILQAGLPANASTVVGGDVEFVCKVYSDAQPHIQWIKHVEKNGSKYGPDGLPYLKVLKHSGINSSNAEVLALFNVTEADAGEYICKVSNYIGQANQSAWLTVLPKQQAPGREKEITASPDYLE
# T1 sequence (P21802 22-377): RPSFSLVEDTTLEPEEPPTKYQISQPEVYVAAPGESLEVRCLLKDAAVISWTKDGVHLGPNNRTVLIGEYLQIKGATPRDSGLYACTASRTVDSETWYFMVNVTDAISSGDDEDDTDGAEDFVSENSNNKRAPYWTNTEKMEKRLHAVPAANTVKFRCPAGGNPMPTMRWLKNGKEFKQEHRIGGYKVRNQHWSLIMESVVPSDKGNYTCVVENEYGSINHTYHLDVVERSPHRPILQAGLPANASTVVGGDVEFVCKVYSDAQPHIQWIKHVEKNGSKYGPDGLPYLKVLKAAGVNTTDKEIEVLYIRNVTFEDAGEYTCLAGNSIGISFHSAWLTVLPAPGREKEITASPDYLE
# T4 sequence (P21802 22-377): as above
# T5 sequence (P21802 other isoform, or with tags, fused parts or gaps): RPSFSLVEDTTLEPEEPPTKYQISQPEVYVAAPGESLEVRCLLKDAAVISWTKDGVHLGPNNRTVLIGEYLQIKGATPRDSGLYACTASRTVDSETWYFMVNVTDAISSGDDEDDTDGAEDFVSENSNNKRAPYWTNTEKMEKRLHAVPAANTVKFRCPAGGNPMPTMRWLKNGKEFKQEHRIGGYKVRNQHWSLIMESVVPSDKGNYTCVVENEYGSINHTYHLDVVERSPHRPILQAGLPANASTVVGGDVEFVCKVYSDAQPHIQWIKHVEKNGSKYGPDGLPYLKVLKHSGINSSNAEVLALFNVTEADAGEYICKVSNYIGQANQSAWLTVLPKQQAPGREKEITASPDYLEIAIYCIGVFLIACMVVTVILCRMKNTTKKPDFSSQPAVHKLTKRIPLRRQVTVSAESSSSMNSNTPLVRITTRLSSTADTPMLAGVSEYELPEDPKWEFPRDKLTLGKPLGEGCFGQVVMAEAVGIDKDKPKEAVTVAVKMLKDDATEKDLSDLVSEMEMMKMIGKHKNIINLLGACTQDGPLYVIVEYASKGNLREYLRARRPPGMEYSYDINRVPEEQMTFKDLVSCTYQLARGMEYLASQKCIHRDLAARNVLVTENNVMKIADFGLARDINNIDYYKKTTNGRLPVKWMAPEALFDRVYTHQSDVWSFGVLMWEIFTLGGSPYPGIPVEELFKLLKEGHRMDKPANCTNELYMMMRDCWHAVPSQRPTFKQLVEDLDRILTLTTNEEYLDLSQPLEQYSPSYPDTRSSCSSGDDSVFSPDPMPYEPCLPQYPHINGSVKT
Binder,OD (450 nm) value [1],binding result [2],also measured
2B2 scFv displayed on phage (scFv) scFv: QLQLQQSGAELVKPGASVKMSCKASGYTFASYNLHWVKQTPGQGLEWIGLIYPENGDTSYNQKFKDKATLTADKSSTTAYIQLSSLASEDSAVYFCARGGFDYWGQGTTLTVSSGGGGSGGGGSGGGGSDIVMTQSQKFMSTSVGDRVSVTCKASQNVGTNVAWYQQKPGQSPKALIYSASYRYSGVPDRFTGSGSGTDYTLTISSVQAEDLALYYCQQHYSTPYTFGGGTKLELK,0.051,no binding,
3A3 scFv displayed on phage (scFv) scFv: QVQLQQSGAELVKPGASVKMSCKASGYTFTTYNIHWVRQTPGQGLEWIGLIYPDNGDTSYNQKFKAKATLTADKSSSTAYMHLSSLTSEDSAVYYCARGGFDYWGQGTTLTVSSGGGGSGGGGSGGGGSDIVMTQSHKFMSTSVGDRVSITCKASQDVNTDVSWYQQKPGQSPKLLIYSASYRYTGVPTRFTGSGSGTDFTFTISGVQAEDLADYYCQQHYNTPYTFGGGTRLEIK,0.05,no binding,
3E2 scFv displayed on phage (scFv) scFv: EIQLQQSGAELVKPGASVKMSCKASGYTFSFYNMHWVKRTPGQGLEWIGLIYPDNGDTSYNQKFKGKATLTADTSSSTAYMQLSSLTSEDSAVYYCARGGLDYWGQGTSLTVSSGGGGSGGGGSGGGGSNIVMTQSQKFMSTSVGDRVSVTCKASQNVGTNVAWYQQKPGQSPKALIYSASYRYTGVPDRFTGSGSGTDFTFTISSVQAEDLAVYYCQQHYSTPYTFGGGTKLEIK,0.036,no binding,
3B7 scFv displayed on phage (scFv) scFv: EVQLQQSGAELVKPGASVKMSCKASGYTFRYYNMHWVKRTPGQGLEWIGLIYPDNGDTSYNQKFKGKATLTADTSSSTAYMQLSSLTSEDSAVYYCARGGFDYWGQGTTLTVSSGGGGSGGGGSGGGGSDIQMTQSPASLSASVGETVTITCGASENIYGALNWYQRKQGKSPQLLIYGATNLADGMSSRFSGSGSGRQYSLKISSLHPDDVATYYCQNVLSTPYTFGGGTKLELK,0.043,no binding,
3F5 scFv displayed on phage (scFv) scFv: EIQLQQSGAELVKPGASVKMSCKASGYTFRYYNMHWVKRTPGQGLEWIGLIYPDNGDTSYNQKFKGKATLTADTSSSTAYMQLSSLTSEDSAVYYCARGGLDYWGQGTTLTVSSGGGGSGGGGSGGGGSDIVLTQSPASLSASVGETVTITCGASENIYGALNWYQRKQGKSPQLLIYGATNLADGMSSRFSGSGSGRQYSLKISSLHPDDVATYYCQNVLSTPYTFGGGTKLEIK,0.038,no binding,
3F10 scFv displayed on phage (scFv) scFv: EVQLQQSGAELVKPGASVKMSCKASGYTFSFYNIHWVRQTPGQGLEWIGLIYPDNGDTSYNQKFKAKATLTADKSSSTAYMQLSSLTSEDSAVYYCARGGFDYWGQGTTLTVSSGGGGSGGGGSGGGGSDVLMTQSPASLSASVGETVTITCGASENIYGALNWYQRKQGKSPQLLIYGATNLADGMSSRFSGSGSGRQYSLKISSLHPDDVATYYCQNVLSTPYTFGGGTKLEIK,0.039,no binding,
3C9 scFv displayed on phage (scFv) scFv: EIQLQQSGAELVKPGASVKMSCKASGYIFRYYNMHWVKRTPGQGLEWIGLIYPDNGDTSYNQKFKGKATLTADTSSSTAYMQLSSLTSEDSAVYYCARGGLDYWGQGTTLTVSSGGGGSGGGGSGGGGSDIQMIQSPASLSASVGETVTITCGASENIYGALNWYQRKQGKSPQLLIYGATNLADGMSSRFSGSGSGRQYSLKISSLHPDDVATYYCQNVLSTPYTFGGGTKLEIK,0.033,no binding,
3E3 scFv displayed on phage (scFv) scFv: QVQLQQPGAVLVKPGASVRMSCKASGYTFPYYNVHWVKRTPGQGLEWIGLIYPDNGDTSYNQKFTGKATLTADTSSSTAYMQLSSLTSEDSAVYYCARGGLDYWGQGTTLTVSAGGGGSGGGGSGGGGSDVQITQSPASLSASVGETVTITCGASENIYGALNWYQRKQGKSPQLLIYGATNLADGMSSRFSGSGSGRQYSLKISSLHPDDVATYYCQNVLSTPYTFGGGTKLEIK,0.033,no binding,
3B4 scFv displayed on phage (scFv) scFv: EVQLQQSGADLVKPGASVKMSCKASGYTFSYYNMHWVRRTPGQGLEWIGLIYPDNGDTSYNQKFKGKATLTADTSSSTAYMQLSSLTSEDSAVYYCARGGLDYWGQGTTLTVSSGGGGSGGGGSGGGGSDIQMIQSPASMSASVGETVTITCGASENIYGALNWYQRKQGKSPQLLIYGATNLADGMSSRFSGSGSGRQYSLKISSLHPDDVATYYCQNVLSTPYTFGGGTKLEMK,0.042,no binding,
3E1 scFv displayed on phage (scFv) scFv: QVQLQQPGAEVVKPGASVKMSCKASGYTFTDYYIHWVKQTPGQGLEWIGAIYPDNGDTSYNQKFKVKATLTADKSSSTAYMQLSSLTSEDSAVYYCARAFTYWGQGTLVTVSAGGGGSGGGGSGGGGSDILITQSPASLSASVGETVTITCGASENIYGALNWYQRKQGKSPQLLIYGATNLADGMSSRFSGSGSGRQYSLKISSLHPDDVATYYCQNVLSTPYTFGGGTKLEIK,0.056,no binding,
1B8 scFv displayed on phage (scFv) scFv: QIQLQQSGAELVKPGASVKMSCKASGYTFASYNLHWVKQTPGQGLEWIGLIYPENGDTSYNQKFKGKATLTADTSSTTAYIQLSSLTSEDSAVYFCARGGFDYWGQGTSLTVSSGGGGSGGGGSGGGGSDIKMTQSPASLSASVGETVTITCGASENIYGALNWYQRKQGKSPQLLIYGATNLADGMSSRFSGSGSGRQYSLKISSLHPDDVATYYCQNVLSTPYTFGGGTKLEIK,0.082,no binding,
1G6 scFv displayed on phage (scFv) scFv: EIQLQQSGAELVKPGASVKMSCKASGYTFRYYNMHWVKRTPGQGLEWIGLIYPDNGDTSYNQKFKGKATLTADTSSSTAYMQLSSLTSEDSAVYYCARGGLDYWGQGTSLTVSSGGGGSGGGGSGGGGSNIVMTQSHKFMSTSVGDRVSITCKASQDVNTDVAWYQQKPGQSPKLLIYSASYRYTGVPTRFTGSGSGTDFTFTISGVQAEDLADYYCQQHYNTPYTFGGGTKLELK,0.073,no binding,
"3G10 scFv-Fc (Fc fusion, scFv-Fc dimer) EVQLQQSGPELVKPGASVKMSCKASGYTFATYNMHWVKQTTGQGLEWIGAIYPDNGDTFYNRKFKDKATLTADKSSTTAYMQLSSLTSEDSAVYYCARGDFAYWGQGTLVTVSAGGGGSGGGGSGGGGSDVLMTQSPASLSASVGETVTITCGASENIYGALNWYQRKQGKSPQLLIYGATNLADGMSSRFSGSGSGRQYSLKISSLHPDDVATYYCQNVLSTPYTFGGGTKLEMKESKYGPPCPPCPAPEAAGGPSVFLFPPKPKDTLMISRTPEVTCVVVDVSQEDPEVQFNWYVDGVEVHNAKTKPREEQFNSTYRVVSVLTVLHQDWLNGKEYKCKVSNKGLPSSIEKTISKAKGQPREPQVYTLPPSQEEMTKNQVSLTCLVKGFYPSDIAVEWESNGQPENNYKTTPPVLDSDGSFFLYSKLTVDKSRWQEGNVFSCSVMHEALHNHYTQKSLSLSLG",,,OD (450 nm) value [3]: 3.12; EC50 [4]: 0.0276 µg/mL; binding result [5]: no binding (tested: 10 µg/mL); EC50 [6]: 0.149 µg/mL; Kd [7]: 6.25 nM; koff [7]: 0.00199 s⁻¹; kon [7]: 318000 M⁻¹ s⁻¹; OD (450 nm) value [8]: 0.096
1D7 scFv displayed on phage (scFv) scFv: QIQLQQSGAELVKPGASVKMSCKASGYTFRYYNMHWVKRTPGQGLEWIGLIYPDNGDTSYNQKFKGKATLTADTSSSTAYMQLSSLTSEDSAVYYCARGGLDYWGQGTSLTVSSGGGGSGGGGSGGGGSDIQMTQSPSSMSASLGDRITITCQATQDIVKNLNWYQQKPGKPPSFLIYYATELAEGVPSRFSGSGSGSDYSLTISNLESEDFADYYCLQFYEFPLTFGAGTKLELK,0.059,no binding,
3G10 scFv displayed on phage (scFv) scFv: EVQLQQSGPELVKPGASVKMSCKASGYTFATYNMHWVKQTTGQGLEWIGAIYPDNGDTFYNRKFKDKATLTADKSSTTAYMQLSSLTSEDSAVYYCARGDFAYWGQGTLVTVSAGGGGSGGGGSGGGGSDVLMTQSPASLSASVGETVTITCGASENIYGALNWYQRKQGKSPQLLIYGATNLADGMSSRFSGSGSGRQYSLKISSLHPDDVATYYCQNVLSTPYTFGGGTKLEMK,0.042,no binding,
3C7 scFv displayed on phage (scFv) scFv: EIQLQQSGAELVKPGASVKMSCKASGYIFRNYYIHWVKRTPGQGLEWIGAIYPDNGDTSYNQRFKVKATLTADTSSSTAYMQLSSLTSEDSAVYYCARAFTYWGQGTTLTVSSGGGGSGGGGSGGGGSDIQMIQSPASLSASVGETVTITCGASENIYGALNWYQRKQGKSPQLLIYGATNLADGMSSRFSGSGSGRQYSLKISSLHPDDVATYYCQNVLSTPYTFGGGTKLEIK,0.04,no binding,

# From patent EP4714976A1 (Sunshine Lake Pharma Co., Ltd., dated 2026)
